# Experimental data reported in FireProtDB (doi:10.1021/bi972395d).
# Several values for one entry are separate records, joined by “and”; a condition that tells them apart may be missing. Equal entries are not always repeated.
# B1: Superoxide dismutase [Mn], mitochondrial, P04179 (parent)
# chain: MLSRAVCGTSRQLAPVLGYLGSRQKHSLPDLPYDYGALEPHINAQIMQLHHSKHHAAYVNNLNVTEEKYQEALAKGDVTAQIALQPALKFNGGGHINHSIFWTNLSPNGGGEPKGELLEAIKRDFGSFDKFKEKLTAASVGVQGSGWGWLGFNKERGHLQIAACPNQDPLQGTTGLIPLLGIDVWEHAYYLQYKNVRPDYLKAIWNVINWENVTERYMACKK
# Variants of: B1
# Settings: Homo sapiens; pH 7.8; 70 °C; Thermal; DSC; potassium phosphate 2 mM; transition: 2; reversible: Yes; structure 1N0J; whole UniProt chain shown
row,Variant,ddG of mutation (higher = less stable) [kcal/mol]
1,MLSRAVCGTSRQLAPVLGYLGSRQKHSLPDLPYDYGALEPHINAQIMQLHHSKHHAAYVNNLNVTEEKYQEALAKGDVTAQIALQPALKFNGGGHINHSIFWTNLSPNGGGEPKGELLEAIKRDFGSFDKFKEKLTAASVGVQGSGWGWLGFNKERGHLQIAACPNNDPLQGTTGLIPLLGIDVWEHAYYLQYKNVRPDYLKAIWNVINWENVTERYMACKK [Q167N],-2.79

# Same assay, conditions: Homo sapiens; pH 7.8; 88.9 °C; Thermal; DSC; potassium phosphate 2 mM; transition: 2; reversible: Yes; structure 1N0J; whole UniProt chain shown
row,Variant,ddG of mutation (higher = less stable) [kcal/mol]
1,MLSRAVCGTSRQLAPVLGYLGSRQKHSLPDLPYDYGALEPHINAQIMQLHHSKHHAAYVNNLNVTEEKYQEALAKGDVTAQIALQPALKFNGGGHINHSIFWTNLSPNGGGEPKGELLEAIKRDFGSFDKFKEKLTAASVGVQGSGWGWLGFNKERGHLQIAACPNNDPLQGTTGLIPLLGIDVWEHAYYLQYKNVRPDYLKAIWNVINWENVTERYMACKK [Q167N],-0.06

# Same assay, conditions: Homo sapiens; pH 7.8; Thermal; DSC; potassium phosphate 2 mM; transition: 2; reversible: Yes; structure 1N0J; whole UniProt chain shown
row,Variant,unfolding enthalpy (calorimetric)
1,MLSRAVCGTSRQLAPVLGYLGSRQKHSLPDLPYDYGALEPHINAQIMQLHHSKHHAAYVNNLNVTEEKYQEALAKGDVTAQIALQPALKFNGGGHINHSIFWTNLSPNGGGEPKGELLEAIKRDFGSFDKFKEKLTAASVGVQGSGWGWLGFNKERGHLQIAACPNNDPLQGTTGLIPLLGIDVWEHAYYLQYKNVRPDYLKAIWNVINWENVTERYMACKK [Q167N],100 kcal/mol and 78.3 kcal/mol
